The values that follow come from patent US20260250318A1, “COMPOSITIONS AND METHODS FOR CROSSING THE BLOOD BRAIN BARRIER” (VOYAGER THERAPEUTICS, INC., priority 2022, published 2026).

For one assay, the target named is T1, ALPL (Homo sapiens, UniProt P05186).
T1 sequence (P05186 18-501): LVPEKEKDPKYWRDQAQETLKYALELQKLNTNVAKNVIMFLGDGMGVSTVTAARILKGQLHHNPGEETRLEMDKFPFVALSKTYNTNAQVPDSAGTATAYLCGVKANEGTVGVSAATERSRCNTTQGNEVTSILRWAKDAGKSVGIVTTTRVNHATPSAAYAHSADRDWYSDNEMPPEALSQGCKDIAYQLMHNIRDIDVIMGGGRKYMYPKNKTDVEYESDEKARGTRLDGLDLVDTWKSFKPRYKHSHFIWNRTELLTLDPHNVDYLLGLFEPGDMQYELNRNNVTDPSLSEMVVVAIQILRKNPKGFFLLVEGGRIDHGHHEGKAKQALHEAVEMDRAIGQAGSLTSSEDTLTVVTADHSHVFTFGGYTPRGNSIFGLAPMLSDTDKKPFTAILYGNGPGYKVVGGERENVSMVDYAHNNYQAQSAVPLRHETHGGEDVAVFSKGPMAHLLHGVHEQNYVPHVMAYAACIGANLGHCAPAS
As to the kind of experiment: Inhibition of TTM-002 transduction by small molecule ALPL inhibitors in HeLa cells expressing ALPL. Set-up: endogenous in cells; host or cells: HeLa. The class given is cell-based. As to the method: An inhibitor of ALPL was also investigated to determine if blocking the ALPL receptor would reduce cellular transduction of the TTM-002 capsid variant. […] The inhibitor or a vehicle control (equivalent amount of DMSO) was added to HeLa cells expressing ALPL 1 hour prior to transduction with an AAV viral particle comprising the TTM-002 capsid variant or an AAV9 control capsid and expressing a GFP-luciferase transgene under the control of a CAG promoter. The cells were then transduced with 1E4 VG/cell of an AAV particle comprising the TTM-002 capsid variant or an AAV9 control capsid. Media and virus were removed 4 hours post transduction and luciferase activity was measured (RLU) 24 hours post transduction.

In assay [1] the target is T2, human ALPL expressed on cells (alkaline phosphatase tissue-nonspecific isozyme, NM_000478.4) (human, UniProt P05186 18-501).
T2 sequence: T1 sequence (P05186 18-501)
As to the kind of experiment: cell-based or functional assay.

Assay [2] concerns the target T2, human ALPL expressed on cells (alkaline …). In words: cell-based or functional assay. This is another data set of the same source.
Assay [3] addresses T3, ALPL with a deletion of the ER localization signal (ALPL transcript variant 2, NM_001127501) (human, UniProt P05186 56-501).
T3 sequence: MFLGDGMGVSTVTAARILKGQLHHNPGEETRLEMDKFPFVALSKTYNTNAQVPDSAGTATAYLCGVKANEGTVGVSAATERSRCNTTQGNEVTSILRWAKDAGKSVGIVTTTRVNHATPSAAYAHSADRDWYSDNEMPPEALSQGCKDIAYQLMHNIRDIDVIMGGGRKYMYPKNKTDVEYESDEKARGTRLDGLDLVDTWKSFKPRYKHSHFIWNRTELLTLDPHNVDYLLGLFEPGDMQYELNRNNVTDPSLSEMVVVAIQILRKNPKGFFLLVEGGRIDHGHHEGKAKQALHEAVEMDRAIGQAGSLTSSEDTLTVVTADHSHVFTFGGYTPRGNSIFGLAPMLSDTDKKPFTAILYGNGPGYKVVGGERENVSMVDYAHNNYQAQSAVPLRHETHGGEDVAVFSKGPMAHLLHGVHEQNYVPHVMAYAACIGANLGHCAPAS
As to the kind of experiment: cell-based or functional assay.

Assay [4] has as its target T2, human ALPL expressed on cells (alkaline …). As to the kind of experiment: cell-based or functional assay. The source holds these as a separate data set.
The target in assay [5] is T4, murine ALPL ortholog expressed on HEK 293T cells (NM_001287172.1) (mouse, UniProt P09242 18-501).
T4 sequence: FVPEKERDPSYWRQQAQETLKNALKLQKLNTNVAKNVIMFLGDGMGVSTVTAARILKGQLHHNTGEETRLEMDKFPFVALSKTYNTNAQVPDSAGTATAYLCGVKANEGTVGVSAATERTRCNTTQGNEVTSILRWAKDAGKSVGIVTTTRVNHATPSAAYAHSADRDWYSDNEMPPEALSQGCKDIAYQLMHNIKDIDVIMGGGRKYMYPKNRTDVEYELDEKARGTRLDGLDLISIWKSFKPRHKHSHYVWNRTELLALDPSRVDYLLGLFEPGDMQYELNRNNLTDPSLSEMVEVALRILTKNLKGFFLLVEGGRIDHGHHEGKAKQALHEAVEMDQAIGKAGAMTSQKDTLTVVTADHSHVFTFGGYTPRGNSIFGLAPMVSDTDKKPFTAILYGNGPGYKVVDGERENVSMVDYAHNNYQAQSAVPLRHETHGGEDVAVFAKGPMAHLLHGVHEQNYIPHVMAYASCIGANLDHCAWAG
As to the kind of experiment: cell-based or functional assay.

The target in assay [6] is T5, AAVR (universal AAV entry factor) expressed on HEK 293T cells (UniProt Q8IZA0 1-1049).
T5 construct: whole, on cells; also called AAVR positive control
T5 sequence: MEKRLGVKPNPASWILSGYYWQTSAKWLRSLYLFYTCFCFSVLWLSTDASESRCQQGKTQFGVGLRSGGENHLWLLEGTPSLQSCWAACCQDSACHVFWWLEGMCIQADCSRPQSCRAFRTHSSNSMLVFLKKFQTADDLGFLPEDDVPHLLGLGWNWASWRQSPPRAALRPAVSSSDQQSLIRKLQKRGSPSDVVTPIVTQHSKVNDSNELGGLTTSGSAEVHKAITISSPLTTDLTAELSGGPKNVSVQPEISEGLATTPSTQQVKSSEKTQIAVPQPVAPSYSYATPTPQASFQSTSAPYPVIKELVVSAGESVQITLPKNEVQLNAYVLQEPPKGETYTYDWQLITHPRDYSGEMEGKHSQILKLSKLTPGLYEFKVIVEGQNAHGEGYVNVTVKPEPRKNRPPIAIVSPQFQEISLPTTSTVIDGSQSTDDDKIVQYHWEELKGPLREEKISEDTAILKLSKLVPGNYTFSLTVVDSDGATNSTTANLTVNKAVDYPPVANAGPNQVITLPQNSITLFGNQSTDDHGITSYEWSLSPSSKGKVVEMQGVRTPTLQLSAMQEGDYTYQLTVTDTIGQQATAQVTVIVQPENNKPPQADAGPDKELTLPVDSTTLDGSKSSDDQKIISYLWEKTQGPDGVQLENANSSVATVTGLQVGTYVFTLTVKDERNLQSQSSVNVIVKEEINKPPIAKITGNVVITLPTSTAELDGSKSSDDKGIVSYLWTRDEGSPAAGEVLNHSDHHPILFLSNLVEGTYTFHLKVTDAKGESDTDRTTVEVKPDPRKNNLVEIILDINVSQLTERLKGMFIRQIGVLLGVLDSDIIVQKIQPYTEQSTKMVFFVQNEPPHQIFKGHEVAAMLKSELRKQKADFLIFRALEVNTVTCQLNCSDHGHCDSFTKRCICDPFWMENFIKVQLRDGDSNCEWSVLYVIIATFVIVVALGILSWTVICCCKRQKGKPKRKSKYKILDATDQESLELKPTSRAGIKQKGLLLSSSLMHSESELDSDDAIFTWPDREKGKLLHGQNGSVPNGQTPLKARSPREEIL
As to the kind of experiment: binding/internalization: AAV incubated 2 or 3 h with AAVR transfected HEK 293T cells, washed, viral genomes quantified.

Assay [7] concerns the target T2, human ALPL expressed on cells (alkaline …). As to the kind of experiment: binding/internalization: AAV incubated 2 or 3 h with ALPL transfected HEK 293T cells, washed, viral genomes quantified.

A word on the IC50: it is the concentration needed to halve the response being measured. Regarding `COc1ccc(Cl)cc1S(=O)(=O)Nc1cncc(C(N)=O)c1` [SBI-425, 5-((5-chloro-2-methoxyphenyl)sulfonamido) nicotinamide], at ALPL, the half-maximal inhibitory concentration (IC50) was determined as 0.34 nM and the “effect on TTM-002 transduction” value was “significantly inhibited TTM-002 transduction”.

B1: TTM-001 capsid variant (AAV particle comprising the TTM-001 AAV9 capsid variant) (other)
chain 1: MAADGYLPDWLEDNLSEGIREWWALKPGAPQPKANQQHQDNARGLVLPGYKYLGPGNGLDKGEPVNAADAAALEHDKAYDQQLKAGDNPYLKYNHADAEFQERLKEDTSFGGNLGRAVFQAKKRLLEPLGLVEEAAKTAPGKKRPVEQSPQEPDSSAGIGKSGAQPAKKRLNFGQTGDTESVPDPQPIGEPPAAPSGVGSLTMASGGGAPVADNNEGADGVGSSSGNWHCDSQWLGDRVITTSTRTWALPTYNNHLYKQISNSTSGGSSNDNAYFGYSTPWGYFDFNRFHCHFSPRDWQRLINNNWGFRPKRLNFKLFNIQVKEVTDNNGVKTIANNLTSTVQVFTDSDYQLPYVLGSAHEGCLPPFPADVFMIPQYGYLTLNDGSQAVGRSSFYCLEYFPSQMLRTGNNFQFSYEFENVPFHSSYAHSQSLDRLMNPLIDQYLYYLSKTINGSGSPHSKAQNQQTLKFSVAGPSNMAVQGRNYIPGPSYRQQRVSTTVTQNNNSEFAWPGASSWALNGRNSLMNPGPAMASHKEGEDRFFPLSGSLIFGKQGTGRDNVDADKVMITNEEEIKTTNPVATESYGQVATNHQSAQAQAQTGWVQNQGILPGMVWQDRDVYLQGPIWAKIPHTDGNFHPSPLMGGFGMKHPPPQILIKNTPVPADPPTAFNKDKLNSFITQYSTGQVSVEIEWELQKENSKRWNPEIQYTSNYYKSNNVEFAVNTEGVYSEPRPIGTRYLTRNL
chain 2: TAPGKKRPVEQSPQEPDSSAGIGKSGAQPAKKRLNFGQTGDTESVPDPQPIGEPPAAPSGVGSLTMASGGGAPVADNNEGADGVGSSSGNWHCDSQWLGDRVITTSTRTWALPTYNNHLYKQISNSTSGGSSNDNAYFGYSTPWGYFDFNRFHCHFSPRDWQRLINNNWGFRPKRLNFKLFNIQVKEVTDNNGVKTIANNLTSTVQVFTDSDYQLPYVLGSAHEGCLPPFPADVFMIPQYGYLTLNDGSQAVGRSSFYCLEYFPSQMLRTGNNFQFSYEFENVPFHSSYAHSQSLDRLMNPLIDQYLYYLSKTINGSGSPHSKAQNQQTLKFSVAGPSNMAVQGRNYIPGPSYRQQRVSTTVTQNNNSEFAWPGASSWALNGRNSLMNPGPAMASHKEGEDRFFPLSGSLIFGKQGTGRDNVDADKVMITNEEEIKTTNPVATESYGQVATNHQSAQAQAQTGWVQNQGILPGMVWQDRDVYLQGPIWAKIPHTDGNFHPSPLMGGFGMKHPPPQILIKNTPVPADPPTAFNKDKLNSFITQYSTGQVSVEIEWELQKENSKRWNPEIQYTSNYYKSNNVEFAVNTEGVYSEPRPIGTRYLTRNL
chain 3: MASGGGAPVADNNEGADGVGSSSGNWHCDSQWLGDRVITTSTRTWALPTYNNHLYKQISNSTSGGSSNDNAYFGYSTPWGYFDFNRFHCHFSPRDWQRLINNNWGFRPKRLNFKLFNIQVKEVTDNNGVKTIANNLTSTVQVFTDSDYQLPYVLGSAHEGCLPPFPADVFMIPQYGYLTLNDGSQAVGRSSFYCLEYFPSQMLRTGNNFQFSYEFENVPFHSSYAHSQSLDRLMNPLIDQYLYYLSKTINGSGSPHSKAQNQQTLKFSVAGPSNMAVQGRNYIPGPSYRQQRVSTTVTQNNNSEFAWPGASSWALNGRNSLMNPGPAMASHKEGEDRFFPLSGSLIFGKQGTGRDNVDADKVMITNEEEIKTTNPVATESYGQVATNHQSAQAQAQTGWVQNQGILPGMVWQDRDVYLQGPIWAKIPHTDGNFHPSPLMGGFGMKHPPPQILIKNTPVPADPPTAFNKDKLNSFITQYSTGQVSVEIEWELQKENSKRWNPEIQYTSNYYKSNNVEFAVNTEGVYSEPRPIGTRYLTRNL
Turning to B1, the “luciferase activity, fold change relative to pCMV6 transfected HEK 293T cells (ALPL transfected cells)” value in assay [1] stood at 35 fold. Moreover, in assay [2], the “fold change in luciferase activity relative to the pCMV6 control cells (cells transfected with ALPL)” value was 22 fold. Further, the “fold change in luciferase activity relative to the pCMV6 control cells (cells transfected with ALPL comprising a deletion of the ER localization signal)” value in assay [3] came to 2 fold. The “fold change in luciferase activity relative to the pCMV6 control cells (cells transfected with human ALPL protein)” value in assay [4] was 22 fold. Further, in assay [5], the “fold change in luciferase activity relative to the pCMV6 control cells (cells transfected with murine ALPL protein)” value was 18 fold. For the same molecule, the “fold change in viral gene expression (2^-ΔΔCT) relative to pCMV6 transfected cells” value in assay [6] amounted to 6.64 fold; in assay [7], 3.16 fold.
